Data published in the supplement of paper PMC9233669.
Fewer inactive variants are shown than the library holds.

Assays:
biotinyl-Met-oxazolone = experiment: self-aminoacylation, catalytic enhancement (BMO) (fold over background); higher = more active; k-Seq, kA / k0A0; sequences stand for … in GGGAAUGGAUCCACAUCUACGAAUUC…UUCACUGCAGACUUGACGAAGCUG
In short: (§1)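 Catalytic enhancement equals the median kA over the uncatalyzed rate, the latter read from the low-activity peak of a bimodal Gaussian fit. Values of kA came from fitting each sequence's fraction reacted to a pseudo-first-order model, with 1000 bootstraps. Reacted RNA was captured with streptavidin and quantified by triplicate qPCR and Illumina sequencing after 90 minutes at room temperature with 2–1250 μM biotinyl-aminoacyl-oxazolone and 0.43 μM mutagenized RNA pools bearing a 21-nt variable region.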

biotinyl-Ile-oxazolone = experiment: self-aminoacylation, catalytic enhancement (BIO) (fold over background); higher = more active; k-Seq, kA / k0A0; sequences stand for … in GGGAAUGGAUCCACAUCUACGAAUUC…UUCACUGCAGACUUGACGAAGCUG
In short: as §1

biotinyl-Trp-oxazolone = experiment: self-aminoacylation, catalytic enhancement (BWO) (fold over background); higher = more active; k-Seq, kA / k0A0; sequences stand for … in GGGAAUGGAUCCACAUCUACGAAUUC…UUCACUGCAGACUUGACGAAGCUG
In short: as §1

biotinyl-Val-oxazolone = experiment: self-aminoacylation, catalytic enhancement (BVO) (fold over background); higher = more active; k-Seq, kA / k0A0; sequences stand for … in GGGAAUGGAUCCACAUCUACGAAUUC…UUCACUGCAGACUUGACGAAGCUG
In short: as §1

biotinyl-Phe-oxazolone = experiment: self-aminoacylation, catalytic enhancement (BFO) (fold over background); higher = more active; k-Seq, kA / k0A0; sequences stand for … in GGGAAUGGAUCCACAUCUACGAAUUC…UUCACUGCAGACUUGACGAAGCUG
In short: as §1

biotinyl-Leu-oxazolone = experiment: self-aminoacylation, catalytic enhancement (BLO) (fold over background); higher = more active; k-Seq, kA / k0A0; sequences stand for … in GGGAAUGGAUCCACAUCUACGAAUUC…UUCACUGCAGACUUGACGAAGCUG
In short: as §1

Row | Sequence | self-aminoacylation (biotinyl-Met-oxazolone) | self-aminoacylation (biotinyl-Ile-oxazolone) | self-aminoacylation (biotinyl-Trp-oxazolone) | self-aminoacylation (biotinyl-Val-oxazolone) | self-aminoacylation (biotinyl-Phe-oxazolone) | self-aminoacylation (biotinyl-Leu-oxazolone)
1 | AUUCAUCUAGGUAAUCGGGUG [Fam2.2 aminoacylation ribozyme variant] | 3.07 | 1.95 | 2.6 | 1.73 | 19.5 | 4.09
2 | AUUCAUCUAGGUCAGCGGGUG [Fam2.2 aminoacylation ribozyme variant] | 4.17 | 3.25 | 4.36 | 3.23 | 25.3 | 5.56
3 | AUUCAUCUAGGUCAUCCGGUG [Fam2.2 aminoacylation ribozyme variant] | 6.61 | 4.53 | 6.87 | 4.65 | 48.9 | 8.6
4 | AUUCAUCUAGGUCAUCGCGUG [Fam2.2 aminoacylation ribozyme variant] | 14.2 | 7.55 | 11.3 | 7.87 | 128 | 18.5
5 | AUUCAUCUAGGUCAUCGGAUG [Fam2.2 aminoacylation ribozyme variant] | 0.879 | 0.962 | 0.846 | 1.04 | 0.576 | 0.802
6 | AUUCAUCUAGGUCAUCGGGAG [Fam2.2 aminoacylation ribozyme variant] | 0.945 | 1.11 | 1.36 | 1.16 | 0.786 | 0.697
7 | AUUCAUCUAGGUCAUCGGGCG [Fam2.2 aminoacylation ribozyme variant] | 3.33 | 2.58 | 2.66 | 2.71 | 14.7 | 3.27
8 | AUUCAUCUAGGUCAUCGGGUA [Fam2.2 aminoacylation ribozyme variant] | 4.18 | 3.09 | 5.53 | 3.46 | 4.63 | 5.18
9 | AUUCAUCUAGGUCAUCGGGUU [Fam2.2 aminoacylation ribozyme variant] | 2.46 | 2.22 | 2.36 | 2.03 | 3.41 | 2.81
10 | AUUCAUCUAGGUCAUCUGGUG [Fam2.2 aminoacylation ribozyme variant] | 3.4 | 2.1 | 2.86 | 2.16 | 18.8 | 4.25
11 | AUUCAUCUAGGUCAUGGGGUG [Fam2.2 aminoacylation ribozyme variant] | 4.98 | 3.26 | 4.54 | 3.14 | 37 | 6.73
12 | AUUCAUCUAGGUCCUCGGGUG [Fam2.2 aminoacylation ribozyme variant] | 5.21 | 4 | 5.66 | 3.9 | 49.6 | 8.62
13 | AUUCAUCUAGGUCUUCGGGUG [Fam2.2 aminoacylation ribozyme variant] | 4.49 | 3.75 | 4.84 | 3.66 | 37.4 | 6.24
14 | AUUCAUCUCGGUCAUCGGGUG [Fam2.2 aminoacylation ribozyme variant] | 6.97 | 4.65 | 6.85 | 4.55 | 49.8 | 9.9
15 | AUUCCCCGAGGUCAUCGGGUG [Fam2.2 aminoacylation ribozyme variant] | 22.7 | 12.5 | 20.2 | 14 | 188 | 29.9
16 | AUUCCCCUAGGACAUCGGGUG [Fam2.2 aminoacylation ribozyme variant] | 7.14 | 6.12 | 8.25 | 6.82 | 44.8 | 9.47
17 | AUUCCCCUAGGCCAUCGGGUG [Fam2.2 aminoacylation ribozyme variant] | 13.6 | 8.31 | 12.5 | 9.59 | 119 | 19.3
18 | AUUCCCCUAGGUCAACGGGUG [Fam2.2 aminoacylation ribozyme variant] | 11.5 | 6.94 | 11.5 | 6.99 | 84.2 | 15.4
19 | AUUCCCCUAGGUCAGCGGGUG [Fam2.2 aminoacylation ribozyme variant] | 11.1 | 8.05 | 11 | 7.83 | 61.3 | 14.1
20 | AUUCCCCUAGGUCAUCAGGUG [Fam2.2 aminoacylation ribozyme variant] | 8.46 | 6.44 | 7.46 | 6.96 | 29.4 | 8.19
21 | AUUCCCCUAGGUCAUCGGGAG [Fam2.2 aminoacylation ribozyme variant] | 8.27 | 6.89 | 8.9 | 6.76 | 19.4 | 9.02
22 | AUUCCCCUAGGUCAUCGGGCG [Fam2.2 aminoacylation ribozyme variant] | 15.7 | 9.9 | 9.17 | 11.3 | 81.8 | 13.5
23 | AUUCCCCUAGGUGAUCGGGUG [Fam2.2 aminoacylation ribozyme variant] | 10.9 | 7.9 | 10.8 | 7.89 | 47.7 | 11.8
24 | AUUCCCCUGAUCAUCGAGUGA [Fam2.1 aminoacylation ribozyme variant] | 6.39 | 3.81 | 7.4 | 4.2 | 8.85 | 5.83
25 | AUUCCCCUGGGUCAUCGGGUG [Fam2.2 aminoacylation ribozyme variant] | 12.2 | 8.62 | 13.3 | 9.66 | 107 | 16.9
26 | AUUCCCCUGGUAAUCGAGUGA [Fam2.1 aminoacylation ribozyme variant] | 6.36 | 3.09 | 7.35 | 3.28 | 37.7 | 5.9

Row | Sequence | self-aminoacylation (biotinyl-Met-oxazolone) | self-aminoacylation (biotinyl-Ile-oxazolone) | self-aminoacylation (biotinyl-Trp-oxazolone) | self-aminoacylation (biotinyl-Val-oxazolone) | self-aminoacylation (biotinyl-Phe-oxazolone) | self-aminoacylation (biotinyl-Leu-oxazolone)
27 | AUUCCCCUGGUCAACGAGUGA [Fam2.1 aminoacylation ribozyme variant] | 8.04 | 4.6 | 8.98 | 4.67 | 49.5 | 7.82
28 | AUUCCCCUGGUCAUCGAGGGA [Fam2.1 aminoacylation ribozyme variant] | 1.29 | 1.42 | 1.99 | 1.55 | 1.62 | 1.56
29 | AUUCCCUUGGUCAUCGAGUGA [Fam2.1 aminoacylation ribozyme variant] | 11.8 | 6.22 | 14.7 | 6.58 | 71.8 | 12.3
30 | AUUCGACUAGGUCAUCGGGUG [Fam2.2 aminoacylation ribozyme variant] | 7.05 | 4.46 | 6.57 | 3.95 | 47.3 | 8.63
31 | AUUCGCCUAGGACAUCGGGUG [Fam2.2 aminoacylation ribozyme variant] | 3.03 | 2.29 | 3.67 | 3.02 | 19.1 | 4.25
32 | AUUCGCCUAGGUAAUCGGGUG [Fam2.2 aminoacylation ribozyme variant] | 3.62 | 2.02 | 2.77 | 2.43 | 28 | 3.88
33 | AUUCGCCUAGGUCACCGGGUG [Fam2.2 aminoacylation ribozyme variant] | 5.69 | 4.4 | 5.18 | 4.27 | 49 | 8.04
34 | AUUCGCCUAGGUCAUCCGGUG [Fam2.2 aminoacylation ribozyme variant] | 7.99 | 6.5 | 10.3 | 6.7 | 78.7 | 10.9
35 | AUUCGCCUAGGUCAUCGGGCG [Fam2.2 aminoacylation ribozyme variant] | 4.99 | 3.22 | 4.35 | 3.59 | 2.39 | 5.67
36 | AUUCGCCUAGGUCAUCGGGUG [Fam2.2 aminoacylation ribozyme variant] | 45.8 | 26.2 | 37.3 | 23.1 | 364 | 63.8
37 | AUUCGCCUAGGUCUUCGGGUG [Fam2.2 aminoacylation ribozyme variant] | 7.49 | 5.33 | 9 | 5.82 | 55.9 | 8.57
38 | AUUCGCCUGGGUCAUCGGGUG [Fam2.2 aminoacylation ribozyme variant] | 12.9 | 6 | 14.1 | 7.88 | 63.1 | 15.8
39 | AUUCGCCUGGUCAUCGAGUGA [Fam2.1 aminoacylation ribozyme variant] | 4.4 | 3.01 | 6.48 | 3.17 | 16.6 | 4.99
40 | AUUCGCUUAGGUCAUCGGGUG [Fam2.2 aminoacylation ribozyme variant] | 7.02 | 4.11 | 6.47 | 4.24 | 52.5 | 8
41 | AUUCGGCUAGGUCAUCGGGUG [Fam2.2 aminoacylation ribozyme variant] | 3.87 | 3.06 | 4.77 | 3.7 | 24.4 | 4.58
42 | AUUCUACUAGGUCAUCGGGUG [Fam2.2 aminoacylation ribozyme variant] | 5.82 | 3.7 | 5.93 | 3.87 | 41.7 | 7.31
43 | AUUCUCCUAGGCCAUCGGGUG [Fam2.2 aminoacylation ribozyme variant] | 5.37 | 3.49 | 5.32 | 3.74 | 33 | 7
44 | AUUCUCCUAGGGCAUCGGGUG [Fam2.2 aminoacylation ribozyme variant] | 4.21 | 2.92 | 3.58 | 3.73 | 28.7 | 4.7
45 | AUUCUCCUAGGUCAACGGGUG [Fam2.2 aminoacylation ribozyme variant] | 6.57 | 3.79 | 5.38 | 3.61 | 46.7 | 8.2
46 | AUUCUCCUAGGUCAUCCGGUG [Fam2.2 aminoacylation ribozyme variant] | 9.16 | 6.71 | 9.8 | 6.42 | 65.5 | 12.2
47 | AUUCUCCUAGGUCAUCGGGCG [Fam2.2 aminoacylation ribozyme variant] | 3.97 | 3.24 | 4.23 | 3.43 | 13.6 | 5.06
48 | AUUCUCCUAGGUCAUCGGGUG [Fam2.2 aminoacylation ribozyme variant] | 13 | 8.11 | 12.3 | 8.06 | 82.4 | 17.7
49 | AUUCUCCUAGGUCAUCGGGUU [Fam2.2 aminoacylation ribozyme variant] | 3.79 | 3.08 | 3.6 | 3.07 | 14.8 | 4.14
50 | AUUCUCCUAGGUCUUCGGGUG [Fam2.2 aminoacylation ribozyme variant] | 7.28 | 4.96 | 7.39 | 4.77 | 44.1 | 8.25
51 | AUUCUCCUAGGUGAUCGGGUG [Fam2.2 aminoacylation ribozyme variant] | 3.62 | 3.17 | 4.65 | 3.62 | 26.4 | 4.94
